Assay: yeast display, Sf9 membrane polyspecificity reagent, FACS + sequencing; frameworks hold sequencing errors
Procedure, shortened: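 A synthetic nanobody library was expressed on Saccharomyces cerevisiae BJ5465 by galactose induction for 36–48 hours. The library was stained for 1 hour at 4 °C with 10% biotinylated, detergent-solubilized Sf9 membrane reagent and enriched with streptavidin microbeads before FACS. Low and high (top ~1%) gates were set on anti-HA fluorescence for expression and streptavidin fluorescence for reagent binding, and each polyreactivity label reflects the gate of origin.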

Sequence	polyreactivity (PSR sort gate)
IIQAGGSLRLSCAASGRTFSGYAMGWYRQAPGKERELIDDITSGGSTYYADSVKGRFTISRDNAKNTVYIQMNSLKPEDTAVYYCAAERHIRSFSSSRTYEFGYWGQGTQVTVSS	low polyreactivity
KGQLVESGGGLVQAGGSLRLTCAASGSNFRFYAMGWYRQAPGKERELVAAITYRSGITYADSVKGRFTISRDNAKNTVYVQMNSLKPEDTAVYYCAARARRYTDEYDYWGQGSQVTVSS	low polyreactivity
KGQLVESGGGLVQEGGSLRLSCAASGNTFVNNHMVWYRQAPGEERELVAAISRRAGSTYYADSVKGRFTISRENAKNTVYIQKNSLKPEENAVYYCAARGSRYYYVQGASKYDYWGQGTQVTVSS	high polyreactivity
KLQLVESGGGLVQAGGSLRLSCASSGSIFVWYAMGWYIQAPGKDRELVARITSGGRTNYADSVKGRFTISRDNAKNTVYLQMNSLKPEDTAVFYCAAGRVSWSPYYYWGQGTQVTVSS	high polyreactivity
KVHLVESGGGLVQAGGSLRLSSAAYGRTFYNNAMGWYIQAPGKERELVAAISGRGGSTYYADSLKGRFTISRDNAKNTVYVQMNILKPEDTAVYYCAATVKYSPIYDYWGQGTQVSVSS	high polyreactivity
KVQHVESGGGLVQAGGSLRLSCAASGLIFYRYAMGWYRQAPGKERELVAAISRSGSSTYYADSVKGRFTISRDNAKNTVYLQMNSLKPEDTAVYYCNAGYGWIWDDRGYWGQGSQVTVSS	high polyreactivity
KVQIVESGGGLVQAGRSLRLSCAASGLTFFGNAMGWYRQAPGKERDLVATISSCGGTSYADSVKGRFTISRDNAKNTVYLQMNSLKPEDTEVYYCAADIVEEFDYWGLGTQVTVSS	low polyreactivity
KVQLVESGAGFVQAGGSLRLSCAASGFIFPVYTMGWYRQAPGKERELVAAITQIGGSTHYADSVKGRFTISRDNAKNTVYLQMNSLKPEYTAVYYCNAVPHPYDWGQGTQVTLSS	low polyreactivity
KVQLVESGAGLVQAGGSLRLSCAASGSTFAQYAMGWYRQAPGKERELVAAISRGGGSTYYADSVKGRFTISRDTAKNTVYLQMHSLKPEDTAVYYCAADPRYRVTLGFDYWGQGTQVTVSS	high polyreactivity
KVQLVESGAGLVQAGGSLRLSCAAYGSIFVGYHMGWYRQAPGKERELVAGITGAGSTNYADSVKGRFTISRENAKNTVYLQMNSLKPEDTAVYYCAADYDTPQGTKYYYWGQGTKVTVSS	low polyreactivity
KVQLVESGAGLVQAGGSLRLTCAASGFTFAYYAMGWYRPAPGKERELVAAISWSGGITYYADSVKGRFTISRDNAKNTVYLQMNSLKPEDTAVDYCAAETFRGSYYDEDYDYWGQGTQVTVSS	low polyreactivity
KVQLVESGGGLFQAGGSLSLSCAATGSSYGGYVMGWYRQAPGKERELVASISGNGASTTYADSVKGRFTISRDNAKNTVYLQMNSLKQEDTAVYYCNARDWYIVWYEYWGQGTQVTVSS	low polyreactivity
KVQLVESGGGLVHAGGILRLISAASGSIFTYYYMGWYRQAPGKERELVAAISWNGGTTYYADSVKGRFTISRDNAKNTVYLQMNSLKPEDTAVYYCNKDGSYRYDYWGQGTQVTVSS	low polyreactivity
KVQLVESGGGLVQAGGSLRISCAASGITFVRNAMGWYRQAPGKERELVAAISSGGSTYYADSVKGSFTISRDNAKITVYLLMYSLKPEDNAVYFCAVLSSWRFSGYDYWGQGTQVNVSS	low polyreactivity
KVQLVESGGGLVQAGGSLRLSCAASGFIFGAYAMGWYRQAPGKERELVPSITWRGGSTYYADSVKGRFTISRDNAKNTVYLQMNSLKPEDTAVYYCAARVYLYNWQYFAYRAVDYWGQGTQVTVSS	high polyreactivity
KVQLVESGGGLVQAGGSLRLSCAASGFIFLGYAMGWYRQAPGKEREFVAVISRSGVRTYYADSVKGRFTISRDNAKNTVYLQMNSLKPEDTAVYYCAARYYSTDLEYWGQGTQVTVSS	high polyreactivity
KVQLVESGGGLVQAGGSLRLSCAASGFTFLRYGMGGYRQAPGKERELVASITSGGGTNYADSVKGRFTISRDNAKNTVYLQLNSLKPEDSAVYYCNAVFFYHGTKPAFISHDYWGQGTQVTVSS	low polyreactivity
KVQLVESGGGLVQAGGSLRLSCAASGFTFYWYDMGWYRQAPGKERELVATISTGGGTNYADSVKGRFTISRDNAKNTVYLQMKSLKPEDTAVYYCAADGSAGYQWGYDFEGDYWGQGTQVTVSS	high polyreactivity
KVQLVESGGGLVQAGGSLRLSCAASGIIFGRYAMGWYRQAPGKERELVATISRSGGTTYYADSVKGRFTISRDNAKNTVYLQMNSLKPEDTAVYYCAARWTSRYDYWGQGTQVTVSS	high polyreactivity
KVQLVESGGGLVQAGGSLRLSCAASGRIFYVNTMGWYRQAPGKERELVATITWGGDSTYYADSVKGRFTISRDNAKNTVYLQMNSLKPEDTAVYYCAADHHDIRLNTRRYDYWGQGTQVTVSS	low polyreactivity
KVQLVESGGGLVQAGGSLRLSCAASGRTFGDYAMGWSRQAPGKEREWVARISWDGGSTYYADSVKGRFTISRDNAKNTVYLQMNSLKPEDTAGYYCYSKSDYWGQGTQVTVSS	low polyreactivity

Sequence	polyreactivity (PSR sort gate)
KVQLVESGGGLVQAGGSLRLSCAASGSIFGRYAMGWYIQAPGKERELVAGISSSGGRTYYADSVKGRFTISRDNAKNTVYLQMNSLKPEDTAVYYCAAVRSSWSYYYWGQGTQVTVSS	high polyreactivity
KVQLVESGGGLVQAGGSLRLSCAASGSTFFDNAKGWYRQAPGKERELVDAISWSGGSTYYADSVKGRFTISRDNAKNTVYFQMNSLKPEDTAVYYCAADWGHGTQVTVSS	low polyreactivity
KVQLVESGGGLVQAGGSLRLSCASSGSIFSGYAMGWYRQAPGKERELVAAISRGGSTNYADSVKGRFTISRDNAKNTVYLQMNSLKPEDTAVYYCARDTEGKYVGYGRFGYWGQGTQVTVSS	low polyreactivity
KVQLVESGGGLVQAGGSLRLTCAASGRIFPYYAMGWYRQAPGKERELVASIRYSAGNTYYADSVKGRFTISRDNAKNTVYLQMNSLKPEDTAVYYCWYTQNTLGNYWGQGTQVTVSS	low polyreactivity
KVQLVESGGGLVQSGGRLRLSCAASGSTFQIYTMGWYRQAPGKERELVAAITNGGGSTYYADSVKGRFTISRDNAKNTVYFQMISLKPEDTAVYYCAAEQSYPLIILYDYWGQGTQVTVSS	low polyreactivity
KVQLVETGRGLVQAGGSLRISCAASGSTFGANAMVWYIQAPGKERELVAAITVRGGSTYYADSVKCRFTISRDNAKNNVYLQMISLKPEETAVYYCAARWACSTNSYYYWGQGTQVTVSS	high polyreactivity
LGQLVESGGGLVQAGGSLRLSCAASGFIFYYYDMGLYRQAPGKESELVATISRGGSRYYADSVKGRFTISRDNAKNTVYLQMNSLKPEDTAVYYCAAYRSFGYRNWNRFDYWGQGTQVTVSS	high polyreactivity
LVHLQESGGGLVHAGGGLRLSCAASGNIFTYVIMGWYRQPPVKERELVAAITYGTITNYADSVKGPFTISRDNAKITVDLQMKCLKPEDSAEYHCAVQSPRIEPRLYYWGQGTEVTVSS	high polyreactivity
LVKLQESGGGLVQAGGSLRLSCAASGTISPGGYMGRYRQAPGKEGELVASINVGGSTNYADSVKGRFTISRDNAKNTVYLQMNSLIPEDNAVYYCAVWGRNRLQLSYWGQGTQVTVSS	low polyreactivity
LVQLQESGGGLVQAGGSLRLSCAASGTISPGGYMGWYRQAPGKERELVASINVGGSTNYADSVKGRFTISRDNAKNTVYLQMNSLKPEDTAVYYCAVWGRNRLQLSYWGQGTQVTVSS	low polyreactivity
LVQLQESGGGLVQAGGSLRLSCAASGTISPGGYMGWYRQAPGKERELVASINVGGSTNYADSVKGRFTISRDNAKNTVYLQRNSLKPEDNAVYYCAVWGRNRLQLSYWGQGTQVTVSS	low polyreactivity
LVQLVESGGGLVQAGGSLRLSCAASGRIFPYYMGSYRQAPGKERELVAVKSSGDGTYYADSVKGRFTISRDNAKNTVYFQMNRLKPEDTAVYYCAADAPREYVDHYKYDDDYWGQGTQVTVSS	low polyreactivity
LVQLVESGGGLVQAGGSLRLSCAASGRTFDTYVMGWYSQAPGKERELVAAITTSGTSTYADSVKGRFTISRDNAKNTVYLQMNSLKPEDTAVYYCAADGPVYYSYVDWISFNEEYWGQGTQVTVSS	low polyreactivity
LVQLVESGGGVVQAGGSLRLSSAASGSIFRNNTMGWYRQAPGKERELVAAISGRGTRTSYADSVKGRFTISRDNAKNTVYLQMNSLKPEDTAVYYCAARSWYLYYWGQGTQVTVSS	low polyreactivity
PVLLVECGGALVQAGGSLRLTSAASGRIIKLYAMGWYRQAPGKVREFVAALTRSGARTYYADSVKGRFTISRDNAKNTVYFQMYSMKPEDSAVYSCAAYDTYDWYDYWGQGTQVTVSS	high polyreactivity
PVQHVESGGGLVQAGGSLRLSCAASGSIFVWYAMGWYRQAPGKERELVAAITINCGSTYYADSVKGRFTISRDTAKNIVYLQMNSLKPEAKAVYYCAADYYTRDRYEFDSWGQGTQVTVSS	low polyreactivity
PVQLQESGGGLVQAGGSLRLSCAARGSIFKVVDMGLYRQAPAKEREFVATIGEGGNTYYADSVKGRFTISRDNAKNTVYLQMNSLKPEDTAVYFSAVVLGTSYRYTYWGQGTQVTVSS	low polyreactivity
PVQLQESGGGLVQAGGSLRLSCAASGNIFDADIMGWNRQAPGKESDLVACIADGGSTNYADSVKGRFTISRDNAKNTVYLQMNSLKPEDTAVHYCAAIAYPDIPTCFDYDSDYFFRGQGTQVTVSS	low polyreactivity
PVQLVESGGGIVQAGGSLRLSCAASGRTFRYNPMGWSRQAPGKERELVAAITYSGGSTYYADSVKGRFTISRDNEKNTVYLQMNSMKPEETAVYYCAAGWRRFDYWGQGTQVTVSS	high polyreactivity
PVQLVESGGGLVQAGGSLRLSCAACGRIFRYYAMGWYRQAPGKERELVAAISRSGGRTYYADSVKGRFTISRDNAKNTVYLEMNSLKPEDTAVYYCNALYYKYYPSRYDYWGLGTQVTVSS	high polyreactivity

— the nanobody polyreactivity screen of Harvey et al. (2022)
